Source: patent publication US20080009038A1 (Chugai, published 2008)
Changes are numbered by the printed parent chain.

B1: VB45B sc(Fv)2 (scFv, part only; not given: linkers and FLAG tag, part only)
scFv, part: QVQLQQSGPELVKPGASVKISCKASGYAFSSSWMNWVKQRPGKGLEWIGRIYPGDGETNNNGKFKGKATLTADKSSTTAYMQLSSLTSEDSAVYFCARGYGDYSFAYWGQGTLVTVSADIVMTQAAPSVPVTPGESVSISCRSSKSLLHSNGNTYLYWFLQRPGQSPQLLIYRMSNLASGVPDRFSGSGSGAAFTLRISRVEAEDVGVYYCMQHLEYPYTFGSGTKLEIKQVQLQQSGPELVKPGASVKISCKASGYAFSSSWMNWVKQRPGKGLEWIGRIYPGDGETNNNGKFKGKATLTADKSSTTAYMQLSSLTSEDSAVYFCARGYGDYSFAYWGQGTLVTVSADIVMTQAAPSVPVTPGESVSISCRSSKSLLHSNGNTYLYWFLQRPGQSPQLLIYRMSNLASGVPDRFSGSGSGAAFTLRISRVEAEDVGVYYCMQHLEYPYTFGSGTKLEIK
B2: TA136 diabody (scFv, V domains shown, part only)
VH: DVQLQESGPGLVKPSQSLSLTCTVTGYSITSDYAWSWIRQLPGNKLEWMGYITYSGYSIYNPSLKSRISISRDTSKNQLFLQLNSVTTEDTATYYCVGGYDNMDYWGQGTSVTVSS
VL: QIVLTQSPAIMSASPGEKVTLTCSASSSVSSSHLYWYQQKPGSSPKLWIYSTSNLASGVPARFSGSGSGTSYSLTISNMETEDAASYFCHQWSSYPWTFGGGTKLEIK
modifications: (Gly4Ser)1 linker; C-terminal FLAG tag
B3: TA136 sc(Fv)2 (scFv, part only; not given: linkers and FLAG tag, part only)
scFv, part: DVQLQESGPGLVKPSQSLSLTCTVTGYSITSDYAWSWIRQLPGNKLEWMGYITYSGYSIYNPSLKSRISISRDTSKNQLFLQLNSVTTEDTATYYCVGGYDNMDYWGQGTSVTVSSQIVLTQSPAIMSASPGEKVTLTCSASSSVSSSHLYWYQQKPGSSPKLWIYSTSNLASGVPARFSGSGSGTSYSLTISNMETEDAASYFCHQWSSYPWTFGGGTKLEIKDVQLQESGPGLVKPSQSLSLTCTVTGYSITSDYAWSWIRQLPGNKLEWMGYITYSGYSIYNPSLKSRISISRDTSKNQLFLQLNSVTTEDTATYYCVGGYDNMDYWGQGTSVTVSSQIVLTQSPAIMSASPGEKVTLTCSASSSVSSSHLYWYQQKPGSSPKLWIYSTSNLASGVPARFSGSGSGTSYSLTISNMETEDAASYFCHQWSSYPWTFGGGTKLEIK
B4: VB16 diabody (scFv, V domains shown, part only)
VH: QVQLQQPGTELVRPGASVKLSCKASGYTFTDYWVNWVKQRPGRGLEWIGRIHPYDSETHYNQKFKNKATLTVDKSSSTAYIQLSSLTSEDSAVYYCASGGWFASWGQGTLVTVSA
VL: DIVMTQAAPSVPVTPGESVSISCRSSKSLLYSNGNTYLYWFLQRPGQSPQLLIYRMSNLASGVPDRFSGSGSGTAFTLTISSVEAEDVGVYYCMQHLEYPYTFGSGTKLEIK
modifications: (Gly4Ser)1 linker; C-terminal FLAG tag
B5: VB16 sc(Fv)2 (scFv, part only; not given: linkers and FLAG tag, part only)
scFv, part: QVQLQQPGTELVRPGASVKLSCKASGYTFTDYWVNWVKQRPGRGLEWIGRIHPYDSETHYNQKFKNKATLTVDKSSSTAYIQLSSLTSEDSAVYYCASGGWFASWGQGTLVTVSADIVMTQAAPSVPVTPGESVSISCRSSKSLLYSNGNTYLYWFLQRPGQSPQLLIYRMSNLASGVPDRFSGSGSGTAFTLTISSVEAEDVGVYYCMQHLEYPYTFGSGTKLEIKQVQLQQPGTELVRPGASVKLSCKASGYTFTDYWVNWVKQRPGRGLEWIGRIHPYDSETHYNQKFKNKATLTVDKSSSTAYIQLSSLTSEDSAVYYCASGGWFASWGQGTLVTVSADIVMTQAAPSVPVTPGESVSISCRSSKSLLYSNGNTYLYWFLQRPGQSPQLLIYRMSNLASGVPDRFSGSGSGTAFTLTISSVEAEDVGVYYCMQHLEYPYTFGSGTKLEIK
B6: VB140 diabody (scFv, V domains shown, part only)
VH: QVQLQQSGPELVKPGASVKISCRAFGYAFSNSWMNWVKQRPGKGLEWIGRIYPGDGETNNNGKFKGKATLTADKSSSTAYMQLSSLTSEDSAVYFCARGYGDYSFAYWGQGTLVTVSA
VL: B4 VL with Y31H, T74A, T79R, S82R
modifications: (Gly4Ser)1 linker; C-terminal FLAG tag
B7: VB140 sc(Fv)2 (scFv, part only; not given: linkers and FLAG tag, part only)
scFv, part: B1 scFv, part with K23R, S25F, S31N, T77S, K253R, S255F, S261N, T307S
B8: VB45B diabody (scFv, V domains shown, part only)
VH: B6 VH with R23K, F25S, N31S, S77T
VL: B4 VL with Y31H, T74A, T79R, S82R
modifications: (Gly4Ser)1 linker; C-terminal FLAG tag
B9: anti-human Mp1 antibody VB22B (antibody, mouse IgG2b, V domains shown)
VH: B6 VH with R23K, F25S, S30T, N59I, N60Y, K65R, G66V, Q82D, L83I, G101D
VL: B4 VL with V11I, Y31H, T79R, S82R, L97I, Y101F
notes: Mouse monoclonal antibody from a hybridoma, tested as culture supernatant; they were cloned with primers for the mouse IgG2b and kappa constant regions

Assays:
[1] = biological target: full-length human Mp1 expressed on BaF3 cells (human) (UniProt P40238); assay: cell-based or functional assay
human Mp1 = biological target: T1, human Mp1 (human, UniProt P40238 26-491, limits assumed); assay: hybridoma supernatants; ELISA on shMp1-FLAG and hMp1-Fc, flow cytometry on CHO-human Mp1 cells, BaF3-human Mp1 proliferation
T1 construct: The analyses of section 1.6 used shMp1-FLAG and hMp1-Fc in ELISA, and CHO-human Mp1 and BaF3-human Mp1 cells; also called human Mpl; TPO receptor
T1 sequence (looked up): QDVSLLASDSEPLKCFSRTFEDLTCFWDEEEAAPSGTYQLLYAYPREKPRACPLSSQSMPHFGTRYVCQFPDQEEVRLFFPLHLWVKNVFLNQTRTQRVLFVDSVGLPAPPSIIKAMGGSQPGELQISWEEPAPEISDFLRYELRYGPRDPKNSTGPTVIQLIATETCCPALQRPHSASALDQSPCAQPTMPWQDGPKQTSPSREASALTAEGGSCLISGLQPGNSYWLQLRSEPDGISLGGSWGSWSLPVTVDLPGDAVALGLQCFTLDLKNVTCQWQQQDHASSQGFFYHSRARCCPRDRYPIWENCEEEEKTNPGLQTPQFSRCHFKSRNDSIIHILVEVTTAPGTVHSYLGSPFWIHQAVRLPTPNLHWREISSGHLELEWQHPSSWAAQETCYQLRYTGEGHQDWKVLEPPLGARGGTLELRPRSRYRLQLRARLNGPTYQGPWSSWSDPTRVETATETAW
Experimental: MRL/MpJUmmCrj-lpr/lpr mice (hereinafter abbreviated as “MRL/lpr mice”; purchased from Charles River, Japan) were immunized; the primary immunization was carried out at eight weeks of age. For every single mouse, an emulsion containing 100 μg of shMPL-FLAG combined with Freud's complete adjuvant (H37 Ra; Beckton Dickinson), was administered subcutaneously as the primary injection. As a booster injection, an emulsion containing shMPL-FLAG (50 μg per mouse) combined with Freud's incomplete adjuvant (Beckton Dickinson) was administered subcutaneously. Three mice which have been immunized six times in total were subjected to a final injection of shMPL-FLAG (50 μg per mouse) through the caudal vein. Cell fusion was achieved by mixing the mouse myeloma P3-X63Ag8U1 cells (P3U1; purchased from ATCC) and mouse splenocytes using polyethylene glycol 1500 (Roche Diagnostics). Hybridoma selection in HAT medium began the following day and culture supernatants were obtained. Screening was carried out by ELISA using immunoplates with immobilized shMp1-FLAG or hMp1-Fc, and by a cell proliferation assay of BaF3-hMp1. Positive clones were isolated as single clones by limiting dilution and then cultured on a large scale. The culture supernatants were collected. Anti-human Mp1 antibody-producing hybridomas, VB22B, VB16, VB140, and VB45B, were obtained by this method.

Binder | agonistic activity (EC50 value: pM) in BaF3-human Mpl, cell proliferation (WST-8) [1] | binding result (human Mp1)
B1 | 30 pM | 
B2 | 3080 pM | 
B3 | 54 pM | 
B4 | 190 pM | 
B5 | 95 pM | 
B6 | 89 pM | 
B7 | 38 pM | 
B8 | 76 pM | 
B9 |  | binds
